Measured values from US20220073643A1 (NANJING GENSCRIPT BIOTECH, published 2022).

B1: chimeric 194D3B2 (antibody, human IgG1, kappa, V domains shown)
VH: QAYLQQSGAELVRSGASVKMSCKASGYPFTSYNMHWVKQTPGQGLEWVGYIYPGNGGTNYNQKFRDKATLTADTSSSTAYMQISRLTSDDSAVYFCLTGRGFAYWGQGTLVTVSA
VL: DIVMTQSPSSLIVTPGERVTMSCKSSQSLLNSGNQKNYLTWYQQKPGQPPKLLIYRASTRESGVPDRFTGSGSGTDFTLTISSVQAEDLAVYYCQNDYSYPLTFGIGTKLELKR
notes: chimeric, human IgG1/kappa constant regions
B2: chimeric 203A6C9 (antibody, human IgG1, kappa, V domains shown)
VH: QVQLKQSGPGLVQPSQSLSITCTVSGFSLTRYGVHWVRQSPGKGLEWLGVIWSGGNTDYNAAFISRLNIRKDNSKSQVFFKMNSLKPNDTAIYYCARAAYFGNSFDYWGQGTTLTVSS
VL: DIVMTQSPSSLPVTAGEKVTMSCKSSQSLLNSGNQKNYLTWYQQKPGQPPKLLIYWASTRDSGVPDRFTGSGSGTDFTLTISSVQAEDLAVYYCQNNYIYPLTFGAGTKLELKR
notes: as for B1
B3: chimeric 222B6G5 (antibody, human IgG1, kappa, V domains shown)
VH: QTYLQQSGAELVRSGASVKMSCKASGYTFTSYNIHWVKQTPGQGLEWIGYISPGNGGTYYNLKFKDKATLTTATSSSTAYMQISSLTSEDSAVYFCATGRGFAYWGQGTLVTVSA
VL: DIVMTQSPSSLTVTPGEKVTMSCKSSQSLFNSGNQKNYLIWYQQKPGQPPKLLIYRASTRDSGVPDRFTGSGSGTDFTLTISNVQAEDLAVYYCQNDYSYPLTFGAGTKLELKR
notes: as for B1
B4: chimeric 252F1B10 (antibody, human IgG1, kappa, V domains shown)
VH: QAYLQQSGAELVRSGASVKMSCKASGYTFTSHNMHWVKQTPGQGLEWIGYIYPGNGGTNYNQKFKGKATLTADTSSSTAYMQINSLTSEDSAVYFCTRDYYGNSFAYWGQGTLVTVSA
VL: DIVMTQSPSSLTEKAGERVSMSCKSSQSLFNSGNQKNYLTWYQQKPGQPPKLLIYWASTRESGVPDRFTGSGSGTDFTLTISSVQAEDLAVYYCQNDYRYPFTFGAGTKLELKR
notes: as for B1
B5: chimeric 250F4G4 (antibody, human IgG1, kappa, V domains shown)
VH: QAYLQQSGAELVRSGASVKMSCKASGYTFTSHNMHWVKQTPGQGLEWIGYIYPGNGRTNYNQKFKGKATLTADTSSSTAYMQISSLTSEDSAVYFCTRDYYGNSFAYWGQGTLVTVSA
VL: DIVMTQSPSSLTEKVGERVSMSCKSSQSLFNSGNQKNYLTWYQQKPGQPPKLLIYWASTRESGVPDRFTGSGSGTDFTLTISSVQAEDLAVYYCQNDYWYPFTFGAGTKLELKR
notes: as for B1
B6: chimeric 257B1G9 (antibody, human IgG1, kappa, V domains shown)
VH: QAYLQQSGAELVRSGASVKMSCKASGYTFTSHNMHWVKQTPGQGLEWIGYIYPGNGGTNYNQKFKGKATLTADTSSSTAYMQISSLTSEDSAVYFCTRDYYGNSFAYWGQGTLVTVSA
VL: DIVMTQSPSSLTERAGERVSMSCKSSQSLFNSGNQKNYLTWYQQKPGQPPKLLIYWASTRESGVPDRFTGSGSGTDFTLTISSVQAEDLAVYYCQNDYRYPFTFGAGTKLELKR
notes: as for B1
B7: chimeric 257G7B9 (antibody, human IgG1, kappa, V domains shown)
VH: QAYLQQSGAELVRSGASVKMSCKASGYTFTSHNLHWVKQTPGQGLEWIGYIYPGNGNTNYNQKFKGKATLTADTSSSTAYMQISSLTSEDSAVYFCTRDYYGNSFAYWGQGTLVTVSA
VL: DIVMTQSPSSLTEKAGERVSMSCKSSQSLFNSGNQKNYLTWYQQKPGQPPKLLIYWASTRESGVPDRFTGSGSGTDFTLTISSVQAEDLAVYYCQNNYWFPFTFGAGTKLELKR
notes: as for B1
B8: chimeric 260G9E8 (antibody, human IgG1, kappa, V domains shown)
VH: QADLQQSGAELVRSGASVKMSCKASGYTFASHNMHWVKQTPGQGLEWIGYIYPGNGGTKYNQKFTGKATLTADTSSSTAYMQITSLTSEDSAVYFCARDYYGNSFAYWGQGTLVTVSA
VL: DIVMTQSPSSLTEKAGEKVSMRCKSSQSLLNSGNQKNYLTWYQQKPGQPPKLLIYWASTRESGVPDRFTGSGSGTDFTLTISSVQADDLAVYYCQNDYMFPFTFGAGTKLELKR
notes: as for B1
B9: chimeric 252E7C9 (antibody, human IgG1, kappa, V domains shown)
VH: QTYLQQSGAELVRSGASVKMSCRTSGYSFTSHNMHWVKQTPGQGLEWIGYIYPGNGGSYYNQKFKGKAILTADTSSSTAYMQISSLTSEDSAVYFCTRDYYGNSFVYWGQGTLVTVSA
VL: DVVMTQSPSSLTEKTGEKVSMSCKSSQSLLNSGNQKNYLTWYQQKPGQPPKLLIYWASTRESGVPDRFTGSGSGTDFTLTISSLQTEDLAIYYCQNNFRYPFTFGAGTKLELKR
notes: as for B1
B10: chimeric 253E4F7 (antibody, human IgG1, kappa, V domains shown)
VH: EIQLQQSGPELMKPGASVKMSCKASGYSFTSYYIHWVKQSHGKSLEWIGYIDPFNGGTRYNQKFEGKATLTVDKSSTTAYMHLSSLTSEDSTVYYCASLRFLAYWGQGTLVTVSA
VL: DIVMTQSPSSLTVTAGEKVTMTCKSSQSLLNSGNQKNYLTWYQQKPGQPPKVLISRASTRQSGVPDRFTGSGSGTDFTLTISSVQAEDLAVYYCQNDYSYPLTFGAGTKLELKR
notes: as for B1
B11: chimeric 262C7C10 (antibody, human IgG1, kappa, V domains shown)
VH: QAYLQQSGAELVRSGASVKMSCKASGYTFTNYNIHWVKQTPGQGLEWIGYIYPGNGGNYYNQKFKGKATLTADTSSITAYMQISSLTSEDSAVYFCARDYYGNSFAYWGQGTLVTVSA
VL: DIVMTQSPSSLTVTAGEKVTMNCKSSQSLLNSGNQKNYLTWYQQKPGQPPKLLIYWASTRESGVPDRFTGSGSGTDFTLTISSVQAEDLAIYYCQNDYYYPLTFGAGTKLELKR
notes: as for B1
B12: chimeric 265E6G2 (antibody, human IgG1, kappa, V domains shown)
VH: QAYLQQSGAELVRSGASVKMSCKASGYTFTSYNMHWVKQTPGQGLEWIGYIYPGNGGTNYNQKFKGKATLTADTSSSTAYMQISSLTSEDSAVYFCARDYYGNSFAYWGQGTLVTVSA
VL: DLVMTQSPSSLTVTAGEKVTMSCKSSQSLLNSGNQKNYLTWYQQKPGQPPKLLIYWASTRESGVPDRFTGSGSGTDFTLTISNIQAEDLAVYYCQNDYSYPLPFGAGTKLELRR
notes: as for B1
B13: chimeric 234B9D4 (antibody, human IgG1, kappa, V domains shown)
VH: EIQLQQSGPDLMKPGSSVKISCTASGYSFTSYYIHWVKQSHGKTLEWIGYIDPFNGGTRYNQKFEGKAALTVDKSSTTAYMHLTSLTSDDSAVYYCASLRFFTYWGQGTLVTVSA
VL: DIVMTQSPSSLTVTAGEKVTMTCKSSQSLLNSGNQENYLTWYQQKPGQPPKLLISRASTRQSGVPDRFTGSGSGTDFTLTISSVQAEDLAVYYCQNDYSYPLTFGAGTKLELKR
notes: as for B1

Experiments:
human Claudin18.2 [1] = biological target: human Claudin18.2 (human); experiment: cell-based or functional assay
human Claudin18.2 [2] = biological target: T1, human Claudin18.2 (human); experiment: FACS, Claudin18.2-HEK293 cells
T1 construct: also called CLDN18.2
Procedure: The binding of chimeric antibodies to Claudin18.2 expressed on HEK293 cells was determine by FACS analysis. Briefly, HEK293 cells expressing human Claudin18.2 as prepared in the foregoing Example were harvested and incubated with anti-Claudin18.2 mAbs at 4° C. for 40 min, followed by fluorophore (iFluor 647)-labeled goat […] IgG (H+L) secondary antibodies at 4° C. for 0.5 hour. The samples were then analyzed by flow cytometry.

human Claudin18.2 [3] = biological target: T1, human Claudin18.2; experiment: cell-based or functional assay; remark: listed apart in the source

Binder	ADCC % Relative activity (human Claudin18.2 [1]) [%]	ADCC EC50 (human Claudin18.2 [1]) [µg/mL]	EC50 (human Claudin18.2 [2]) [nM]	CDC % Relative activity (human Claudin18.2 [3]) [%]	CDC EC50 (human Claudin18.2 [3]) [µg/mL]
B1	83.6	0.0291	0.796	793	0.34
B2	66.4	0.0367	0.551	1040	0.261
B3	131	0.0276	0.61	1320	0.205
B4	85.9	0.0357	0.798	937	0.288
B5	109	0.0281	1.02	875	0.309
B6	68.2	0.0454	1.17	642	0.358
B7	55.8	0.0556	0.742	760	0.302
B8	104	0.024	1.05	684	0.336
B9	98.7	0.0311	0.331	991	0.272
B10	138	0.0225	0.561	1320	0.205
B11	105	0.0237	1.17	666	0.345
B12	77.8	0.0321	1.05	487	0.472
B13			2.6		
